Data reported in the nanobody polyreactivity screen of Harvey et al. (2022).

Test: yeast display, Sf9 membrane polyspecificity reagent, FACS + sequencing; frameworks hold sequencing errors
Summary of the method: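 Synthetic nanobody libraries on Saccharomyces cerevisiae BJ5465 were galactose-induced for 36–48 hours, stained 1 hour at 4 °C with 10% biotinylated, detergent-solubilized Sf9 membrane reagent and enriched on streptavidin microbeads. FACS then separated cells into low and high (top ~1%) gates by anti-HA (expression) and streptavidin (reagent binding) fluorescence. Genes were colony-PCR amplified, MiSeq 2 × 250 sequenced and CDR-length filtered. A clone's polyreactivity label is that of its gate of origin.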

| Sequence | polyreactivity (PSR sort gate) |
| --- | --- |
| QVQLVESGGGLVQAGGSLRLSCAASGSTFWKYVMGWYRPAPGKERELVAAITSRGGSTYADSVKGRFTISRDNAKNTVYLLMNSLKPEDTAVYYCAATKFWYYGYDYWGQGTQVTVSS | low polyreactivity |
| QVQLVESGGGLVQAGGSLRLSCAASGSTFWLNAMGWYRQAPGKERELVAAITGLGGSTYYADSVKGRFTISRDTAKNTVYLQMNSLKPEDTAVYYCAAGAYRRNKSDYYYWGQGTEVTVSS | low polyreactivity |
| QVQLVESGGGLVQAGGSLRLSCAASGSTFWLYAMGWYRPAPGKERELVASISSRGGSTYYADSVKGRFTISRDYAKNTVYLQMNSLKPEDTAVYYCAAKDIRYDDDYWGQGTQVTVSS | low polyreactivity |
| QVQLVESGGGLVQAGGSLRLSCAASGSTFWNAMGWYRPGPGKERELVAAIRLSGGSTYYADSVKGRFTISRDNAKNTVYLQMNSLKPEDTAVYYCNADVTFGYWEYDYWGQGTQVTVSS | low polyreactivity |
| QVQLVESGGGLVQAGGSLRLSCAASGSTFWPNAMGWYRQAPGKERELVAGITTSSGSTFYADSVKGRFTISRDNAKNTVYLQMNSLKPADTAVYYCNARVRRRRYKYDYWGQGTQVTVSS | high polyreactivity |
| QVQLVESGGGLVQAGGSLRLSCAASGSTFWPYAMGWFRQAPGTERELVAAITWSGGRTYYADSVKGRFTLSRDNAKNTVYLQMNSLKPEDTAVYYCAAYYRQGIAPNGFDYWGQGTQVTVSS | high polyreactivity |
| QVQLVESGGGLVQAGGSLRLSCAASGSTFWPYAMGWYRPAPGKERELVAAITNSGGSTYYADSVKGRFTISRDNAKYTVYLQMNSLKPEDTAVYYCAVRGVIYSYTPVNTYDYWGQGTQVTVSS | low polyreactivity |
| QVQLVESGGGLVQAGGSLRLSCAASGSTFWQYAMGWYRQAPGKERELVAAISYSGGSTYYADSVKGRFTISRDNAKNTVYLQMNSLKPEDTAVYYCAKEYNVGFYLVFNRFDYWGQGTQVTVSS | low polyreactivity |
| QVQLVESGGGLVQAGGSLRLSCAASGSTFWRYAMGWYRQAPGKERELVAGITWNGGSTYYADSVKGRFTISRDNAKNTVYLQMNSLKPEDTAVYYCAARRTWGYIYRLGYGMDYWGQGTQVTVSS | high polyreactivity |
| QVQLVESGGGLVQAGGSLRLSCAASGSTFWSNAMGWYRQAPGKERELVAAISISDGNTYYADSVKVRFTISRDNAKNTVYLQMNSLKPEDTAVYYCATVGSEDGDPGFDYWGQGTQVTVSS | low polyreactivity |
| QVQLVESGGGLVQAGGSLRLSCAASGSTFWSYAMGWYRQAPGKEREFVAAISSSDDSTYYADSVKGRFTISRDNAKNTVYLQMNSLKPEDTAVYYCATSWYIYPYDYWGQGTQVTVSS | low polyreactivity |
| QVQLVESGGGLVQAGGSLRLSCAASGSTFWSYAMGWYTQAPGKERELVAVITGSDGRTFYADSVKGRFTISRDNAKNTVYLQMNSLKPEDTAVYYCAADAVFRATRYDRSTSEDDYWGQGTQVTVSS | low polyreactivity |
| QVQLVESGGGLVQAGGSLRLSCAASGSTFWVNTMGWYRQAPGKERELVAAISSNGGSTYYADSVKGRFTISRDNAKNTVYLQMNSLKPEDTAVYYCATRQSWSDYYLNVDYDYRGQGTQVTVSS | low polyreactivity |
| QVQLVESGGGLVQAGGSLRLSCAASGSTFWVYTMGWYRQAPGKERALVAAINYSDGSTYYADSVKGRFTISRENAKNTVYLQMNSLKPEDTAVYYCAAGSDPTGRRYEYWGQGTQVTVSS | low polyreactivity |
| QVQLVESGGGLVQAGGSLRLSCAASGSTFWVYTMGWYRQAPGKERELVAAINYSDGSTYYADSVKGRFTISRDNAKNTVYLQMNRLKPEDTAVYYCAAGSDPTGRRYDYWGQGTQVTVSS | low polyreactivity |
| QVQLVESGGGLVQAGGSLRLSCAASGSTFWWYAMGWYRQAPGKERELVADITTGGSTNYADSVKGRFTISRDNAKNTVYLQMNSLKPEDTAVYYCNADGVTPYTWRLRYFKYHFDYWGQGTQVTVSS | low polyreactivity |
| QVQLVESGGGLVQAGGSLRLSCAASGSTFWYNAMGWYRQAPGKERELVARISYSGGSTYYADSVKGRFTISRDNAKNTVYLQMNSLKPEDTAVYYCAARRPYKYDYWGQGTQVTVSS | high polyreactivity |
| QVQLVESGGGLVQAGGSLRLSCAASGSTFWYYAMGWFRQAPGKERELVAAITRGASTNYADSVKGRFTISRDNAKNTVYLQMNSLKPEDTAVYYCAAGPARWKGYYWGQGTQVTVSS | high polyreactivity |
| QVQLVESGGGLVQAGGSLRLSCAASGSTFWYYAMGWYRPAPGKERELVAAITISGGSTYYADSVKGRFTISRDNAKNTVYLQMNSLKPEDTAVYYCATDDTHRVGWFDYWGQGTQVTVSS | low polyreactivity |
| QVQLVESGGGLVQAGGSLRLSCAASGSTFWYYAMGWYRQAPGKERELVAAIRWSDGSTYYADSVKGRFTISRDNAKNTVYLQMNSLKPEDTAVYYCEYYYWGQGTQVTVSS | low polyreactivity |
| QVQLVESGGGLVQAGGSLRLSCAASGSTFWYYAMGWYRQAPGKERELVATITTSGGNTYYADSVKGRFTISRDNAKNTVYLQMNSLKPEDTAVYYCAARRYRASSRGYGYWGQGTQVTVSS | high polyreactivity |
| QVQLVESGGGLVQAGGSLRLSCAASGSTFWYYAMGWYRQAPGKEWEFVAAIKWSGGRTDYADSVKGRFTISRDIAKNTVYLQMNSLKAEDTAVYYFAADYSFRSFPIDANVLGYEYWGQGTQVTVSS | high polyreactivity |

| Sequence | polyreactivity (PSR sort gate) |
| --- | --- |
| QVQLVESGGGLVQAGGSLRLSCAASGSTFWYYTMGSYRQAPGKERELVAAIRYSGTRTYYADSVKGRFTISRDNAKTTVYLQMNSLKPEDTAVYYCARYRTPGYQAYLYDYWGQGTQVTVSS | low polyreactivity |
| QVQLVESGGGLVQAGGSLRLSCAASGSTFYANAMGWYRQAPGKERELVAAITSGGSTNYADSVKGRFTISRDNAKNTVYLQMNSLKPEDTAVYYCATPVNRERHAEDYWGQGTQVTVSS | low polyreactivity |
| QVQLVESGGGLVQAGGSLRLSCAASGSTFYANVMGWYRQAPGKDRELVGAIEGSGGRTDYADSVKGRFTISRDNAKNTVYLQMHSLKPEDTAVYYCAKKRIVPVKQFGRDYNYWGQGTQVTVSS | high polyreactivity |
| QVQLVESGGGLVQAGGSLRLSCAASGSTFYAYALGWYRQAPGKERELVAAISSDGTNYADSVKGRFTISRDNAKNTVYLQMNSLKPVDTAVYYCAADLLLYSSQDNDYWGQGTQVTVSS | low polyreactivity |
| QVQLVESGGGLVQAGGSLRLSCAASGSTFYAYAMGWYRHAPGKERELVAAIDSGGSTYYADSVKGRFTISRDNAKNTVYFQMNSLKPEDTAVYYCAVRHRYTRAYWGRDYWGQGTQVTVSS | low polyreactivity |
| QVQLVESGGGLVQAGGSLRLSCAASGSTFYAYAMGWYRQAPGKERELVAAINGSGGSTNYADSVKGRFTISRDNAKHTDYLQMNSQKPEDTAVYYCAADWSRRLYDYWGQGTQVTVSS | low polyreactivity |
| QVQLVESGGGLVQAGGSLRLSCAASGSTFYAYAMGWYRQAPGKERELVAAIRISGTSTYYADSVKGRFTISRDNAKNTVYLQMNSLKPEDSAVYYCNTLATYVAHNDYWGQGTQVTVSS | high polyreactivity |
| QVQLVESGGGLVQAGGSLRLSCAASGSTFYAYAMGWYRQAPGKERELVASITYSGVSTYYADSVKGRFTISRDNAKNTVYLQMNSLKPEDTAVYYCATDYSHITYSHYRWWYNEYEYWGQGTQVTVSS | low polyreactivity |
| QVQLVESGGGLVQAGGSLRLSCAASGSTFYAYAMGWYRQEPGKERELVAAINSVGSTYYADSVKGRFTISRDNAKNTVYLQMNSLKPEDTAVYYCARGVDYPTSQPPYFRHDYWGQGTQVTVSS | low polyreactivity |
| QVQLVESGGGLVQAGGSLRLSCAASGSTFYAYTMGWYRQAPGKERELVAAISSGGGTYYADSVKGRFTISRDNAKNTVYLQMNSLKPEDTAVYYCAADPVGYYDPSDYWGQGTQVTVSS | low polyreactivity |
| QVQLVESGGGLVQAGGSLRLSCAASGSTFYAYVMGWYRQAPGKERELVAAIRSSGGRTYYADSVKGRFTISRDNAKNTLYLQMNSLKPEDSAVYYCAKAIWATRQYLRFTDYDYWGQGTQVTVSS | high polyreactivity |
| QVQLVESGGGLVQAGGSLRLSCAASGSTFYCYVMGWYRQAPGKERALVAAISSGGGTYYADSVKGRFTISRDNAKNTVYLQMNSLKPEDTAVYYSAADASDGQSWYEDYEYDYWGQGTQVTVSS | low polyreactivity |
| QVQLVESGGGLVQAGGSLRLSCAASGSTFYDNAKGWYRPAPGKERELVAAISYSGASTYYADSVKGRFTISRDNAQNTVYLQMNSLKPEDTAVYYCSKTFYSLYWGQGTQVTVSS | low polyreactivity |
| QVQLVESGGGLVQAGGSLRLSCAASGSTFYDYAMGWYRQAPGKERELVASITTGGDSTYYADSVKGRFTISRDNAKNTVYLQMNSLKPEDTAVYYCNADWYYWISNYQGAPEMDYWGQGTQVTVSS | high polyreactivity |
| QVQLVESGGGLVQAGGSLRLSCAASGSTFYDYVMGWYRQAPGKERELVAVISSSGSTNYADSVKGRITISRDNAKNTVYLQMNSLKTEDTAVYYCAAEYTFDWLEFDYWGQGTQVTVSS | low polyreactivity |
| QVQLVESGGGLVQAGGSLRLSCAASGSTFYEYAMGWYRQAPGKERELVAAISSGGSTYYADSVKGRFTISRDNAKNTVYLQMNSLKPEDTAVYYCNADCQTYGGEYDYWGQGTQVTVSS | low polyreactivity |
| QVQLVESGGGLVQAGGSLRLSCAASGSTFYEYAMGWYRQAPGKERELVAAISWSDVDTYYADSVKGRFTISRDNAKNTVYLQMNSLKPEDTAVYYCAAEWYHPYTQEMDYWGQGTQVTVSS | high polyreactivity |
| QVQLVESGGGLVQAGGSLRLSCAASGSTFYFNAMGWYRPAPGKERELVAAIDWSGGSTYYADSVKGRFTISRDNAKNTVYLQMNSLKPEDTAVYYCAADISVGRYGDMDYYYKVDYWGQGTQVTVSS | low polyreactivity |
| QVQLVESGGGLVQAGGSLRLSCAASGSTFYFNAMGWYRQAPGKEREFVAGIRYSGSSTYYADSVKGRFTISRDNAKNTVYLQMNSLKPEDTAVYYCAAERWCYTVRGYGYWGHGTQVTVSS | high polyreactivity |
| QVQLVESGGGLVQAGGSLRLSCAASGSTFYFNAMGWYRQAPGKERELVAAIDWSGGSTYYADSVKGRFTISRDNAKNTVYLQMNSLKPEDTAVYYCNADNYEWGNNYGYWGQGTQVTVSS | low polyreactivity |
| QVQLVESGGGLVQAGGSLRLSCAASGSTFYFNAMGWYRQAPGKERELVAGIRYSGSSTYYADSVKGRFTISRDNAKNTVYLQMNSLKPEDTAVYYCAARYSVYPRVSKYSYRFNYWGQGTQVTVSS | high polyreactivity |
